This note sets out measurements from US12083109B2, “Neurokinin antagonists and uses thereof” (California Institute of Technology, priority 2017, dated 2024).

The subject of the series is Tac2 mRNA. Kind of series: Tac2 mRNA knockdown by FISH and qRT-PCR in brain of shRNA mice. The note with it: for knockdown of Tac2 mRNA (efficacy of shRNA): FISH and qRT-PCR; for Tac2 mRNA in CeA / Tac2 mRNA in DMH / Tac2 mRNA in dBNSTa: FISH fluorescence / qRT-PCR vs luciferase shRNA control. The class given is in vivo, mouse. The procedure: Fluorescent in situ hybridization (FISH) was carried out according to the protocol described in (Thompson et al., 2008; incorporated by reference in its entirety) with modifications. Briefly, mice were transcardially perfused with 1×PBS followed by 4% paraformaldehyde/PBS (PFA) in 1×PBS. Brains were fixed in 4% PFA for 3-4 hours at 4° C., and cryoprotected overnight in 15% sucrose at 4° C. Brains were embedded in OCT Compound (Fisher Scientific) and cryosectioned at 30 μm thickness and mounted on Superfrost Plus slides (Fisher Scientific). Sections were fixed in 4% PFA for 30 minutes, acetylated with 0.25% acetic anhydride in 0.1 M triethanolamine for 10 minutes, dehydrated with increasing concentrations of EtOH (50, 70, 95 and 100%), gently treated with proteinase K ([…] in 0.01M Tris-HCl pH 7.4 and 0.001M EDTA) for 10 minutes, and fixed in 4% PFA for 20 minutes. All procedures were performed at room temperature (RT). The hybridization buffer contained 50% deionized formamide, 3× standard saline citrate (SSC), 0.12 M PB (pH 7.4), 10% dextran sulfate, 0.12 mg/ml yeast tRNA, 0.1 mg/mL calf thymus DNA, and 1× Dehardt solution. The sections were prehybridized at 63° C. in hybridization buffer for 30 minutes and then hybridized with the digoxigenin-labeled Tac2 RNA probe (300 ng/ml) in hybridization buffer at 63° C. for 16 hours. After hybridization, the sections were washed with 5×SSC for 10 minutes, 4×SSC/50% formamide for 20 minutes, 2×SSC/50% formamide for 30 minutes, and 0.1×SSC for 20 minutes twice each at 61° C. The sections were blocked with 4% sheep serum in TNT buffer (Tris-HCl pH7.5, 0.15 M NaCl and 0.00075% Tween 20) for 30 minutes and TNB Blocking buffer (TSA blocking reagent, PerkinElmer, Waltham, MA) for 30 minutes at RT. The sections were incubated overnight at RT with anti-digoxigenin-POD antibody (1:600, Roche Diagnostics) in TNB buffer. The sections were washed with TNT buffer and tyramide-biotin signal amplification was performed using the TSA Plus Biotin Kit (PerkinElmer). Signals were visualized after 1 hour incubation with Alexa Fluor 594 Streptavidin (Jackson ImmunoResearch) or Alexa Fluor 488 Streptavidin (Invitrogen) at RT. Sections were counterstained with DAPI ([…] in PBS), washed with 1×PBS, and coverslipped using Fluoro-Gel with Tris Buffer (Electron Microscopy Sciences). Tissue images of entire coronal brain sections were taken using an Olympus VS120-S6-W slide-scanner and cells positive for the probe were counted. Cell Counting
Following confocal or slide-scanner imaging, quantification of labeled cells was performed using ImageJ and Metamorph. Cells were counted by an observer blind to experimental conditions. Brain images were converted to greyscale (16-bit) in ImageJ and adjusted using automatic thresholding and watershed separation. Cells were either counted automatically using ImageJ's particle analysis algorithm (random sections were counted manually to cross-check that automated scoring was consistent with manual human scoring); otherwise, cells were counted manually using MetaMorph. Cells that were not entirely contained within a given region of interest (ROI) were excluded from analyses. Relative fluorescent intensities were measured automatically using MetaMorph for a given ROI. Raw cell counts within an ROI were divided by the size of the ROI (mm^2) to produce the number of positively labeled cells/mm^2.
Group housed or isolated (30 minutes, 24 hours, 2 weeks) mice were decapitated and brains were quickly removed and placed in RNA Later (Qiagen) at 4° C. Tissue from dBNSTa, DMH, CeA, ACC, and dHPC was microdissected and placed in RNA Later. Tissue was then homogenized and RNA purified using an RNAeasy Plus Mini Kit (Qiagen). 150ng of total RNA/region/condition was then incubated with 3 μl of Turbo DNase, 1 μl of Murine RNase Inhibitor in 1× Turbo DNase buffer for 15 minutes at 37° C. to remove any contaminating genomic DNA. […]
A general note: In qPCR the cycle at which signal appears reflects the starting amount.

“Also recorded” adds a separate entry of the source.

B1: shRNA-2: small hairpin RNA for mouse Tac2 gene (SEQ ID NO: 11, 12), expressed from AAV5-H1-shRNA-CMV-zsGreen (nucleic acid)
chain 1: CCGCCTCAACCCCATAGCAATTAGCTTCCTGTCACTAATTGCTATGGGGTTGAGGCTTTTTT
chain 2: AAAAAAGCCTCAACCCCATAGCAATTAGTGACAGGAAGCTAATTGCTATGGGGTTGAGGCGG
In the case of B1, the “knockdown of Tac2 mRNA (efficacy of shRNA)” value is “proved effective; also recorded: strongest reductions; also recorded: stronger knockdown”, the “Tac2 mRNA in CeA” value is listed as “appeared reduced”, the “Tac2 mRNA in DMH” value is “reduced” and the “Tac2 mRNA in dBNSTa” value is recorded as “reduced”.

B2: shRNA-1: small hairpin RNA for mouse Tac2 gene (SEQ ID NO: 9, 10), expressed from AAV5-H1-shRNA-CMV-zsGreen (nucleic acid)
chain 1: CCGACGTGGTTGAAGAGAACACCGCTTCCTGTCACGGTGTTCTCTTCAACCACGTCTTTTTT
chain 2: AAAAAAGACGTGGTTGAAGAGAACACCGTGACAGGAAGCGGTGTTCTCTTCAACCACGTCGG
On to B2, for which the “knockdown of Tac2 mRNA (efficacy of shRNA)” value is on record as “proved effective”, the “Tac2 mRNA in CeA” value is recorded as “appeared reduced”, the “Tac2 mRNA in DMH” value is reported as “reduced” and the “Tac2 mRNA in dBNSTa” value was “reduced”.
